Among the data in patent US6096512 are Total activity (U), cell lysate, Km and specific activity of the purified enzyme preparation values, retold here.

The target of assay [1] is bovine apomucin (deglycosylated bovine submaxillary mucin) (bovine).
In assay [2] the target is serine containing acceptor peptide ….
Assay [3] has the same target. This is another data set of the same source.
The target in assay [4] is bovine apomucin (deglycosylated bovine submaxillary mucin) (bovine). The source holds these as a separate data set.

Read-outs that look alike come from different tables or passages of the source.

What is called Km is the concentration of substrate that gives half-maximal velocity.

With “cloned full-length (membrane bound) bovine GalNAc-transferase expressed in Sf9 cells (enzyme)”, in assay [1], the Total activity (U), cell lysate was found to be 16.2 U.

Take “soluble, secreted recombinant bovine GalNAc-transferase GalNAcTs (enzyme)”: the Km in assay [2] is 3.5 mM; in assay [3] it was 3.6 mM. The substance also yielded a specific activity of the purified enzyme preparation in assay [4] of 2160 U/mg protein.
